Source: article PMC12347638, “Fungal Laccases with High and Medium Redox Potential: Is the T1 Center Potential a Key Characteristic of Catalytic Efficiency in Heterogeneous and Homogeneous Reactions?” (International Journal of Molecular Sciences, 2025)

Experiments:
purified protein [1] = substrate: CCn1c(=NN=c2sc3cc(S(=O)(=O)O)ccc3n2CC)sc2cc(S(=O)(=O)O)ccc21; assay: purified protein; type: biochemical, Metuloidea murashkinskyi; settings: air-saturated 0.1 M Na-citrate-phosphate buffer, pH 5.5, 23 °C, O2 co-substrate, free enzyme
purified protein [2] = substrate: CCn1c(=NN=c2sc3cc(S(=O)(=O)O)ccc3n2CC)sc2cc(S(=O)(=O)O)ccc21; assay: purified protein; type: biochemical, Antrodiella faginea; settings: air-saturated 0.1 M Na-citrate-phosphate buffer, pH 5.5, 23 °C, O2 co-substrate, free enzyme

Row | Protein | Km (purified protein [1]) | kcat (purified protein [1]) | kcat/Km (purified protein [1]) | Km (purified protein [2]) | kcat (purified protein [2]) | kcat/Km (purified protein [2])
1 | SmL (Lac2), Steccherinum murashkinskyi laccase (Metuloidea murashkinskyi) (protein, native secreted enzyme purified from culture liquid) AQIGPVTDLHITNANISPDGFSRPAVLAGGTFPGPTIAGNTGDNFQITVFNDLTDPSMLTDTSIHWHGLFQKGTNWADGPAFVTQCPIITGQSFDYNFNVPGQAGTFWYHSHLSTQYCDGLRGPFVVYDPNDPNASLYDVDDDTTIITLADWYHTLAQQEPIGAAITADATLINGLGRSFTNTTASPLSVITVQSGKRYRMRLVSISCDPNYLFSIDGHDMTIIEVDGVNSQQLTVDQIQIFAAQRYSFVLNANQPVGNYWIRAQPNSGGQGFDGGINSAILRYEGATVEDPTTTAPTTFSNPLVETDLHPLADLGVPGQPFRGGADDPLVLNLAFANGRFSIDGVSFVPPTVPVLLQILSGAQNAQDLLPAGSVISLPSNSVIEVALPAGAAGGPHPFHLHGHNFAVVQSANNATPNYVNPIWRDTVSIGGTGDNVTIRFTTNNPGPWFLHCHIDWHLEAGFAIVFAEDIPDTASANPVPQAWSDLCPAYDQAHNISTATRQDFQILCICGILHVNFRQEERCGIS | 71.7 ± 2.9 µM | 33.3 ± 1.4 s⁻¹ | 460000 M⁻¹ s⁻¹ | – | – | –
2 | AfL (LacA), Antrodiella faginea laccase (Antrodiella faginea) (protein, native secreted enzyme purified from culture liquid) AIGPVADLKIVNANIQPDGFTRPAVLAGGTFPGPLIKGNKGDNFQLNVIDELENEDMLKSTSIHWHGFFQHGTNWADGPAFVNQCPITTGHSFLYNFHVPDQAGTFWYHSHLSTQYCDGLRGPMVVYDPHDPLKQLYDVDDESTVMTLADWYHTLARQEPPGPVTPDSTLINGLGRAPGQTTPSELAVLTVKRGTRYRIRLINISCEPNYHYSIDNHDLTVIEADGVSTQSLTVSSLTIFAGQRYSFILNANQPVGNYWIRAQPNDAADVTFNGGINSAILRYEGAPVAEPNTTAGPDNTPLLEVNIRPFVFTPVPGQPHAGGADFVKNLLFSFNGTNFQVDNVSFVPPTVPILLQILSGAHTAQDLMPAGSIIPLPKNAVIEFSMPGGVVGGGHPIHLHGHNFWVIRSANSSVYNYNDPVIRDVVNIGTTGDNVTIRFETNNPGPWFLHCHIDWHLDLGFAVVMAEDIPDAAAANPVPAAWNELCPLYDALTPGNQ | – | – | – | 4.9 ± 0.4 µM | 32.7 ± 1.1 s⁻¹ | 6.67e+06 M⁻¹ s⁻¹
